# Test results taken from patent US20120034215A1 (Daiichi Sankyo, published 2012).
# T1: mouse MST1R with N-terminal Flag tag, expressed on HEK293T cells (mouse, UniProt Q62190 24-1378)
# T1 construct: ORF cloned excluding the signal peptide region; not shown: N-terminal Flag tag from vector pFLAG-myc-CMV-19 (Sigma)
# T1 sequence: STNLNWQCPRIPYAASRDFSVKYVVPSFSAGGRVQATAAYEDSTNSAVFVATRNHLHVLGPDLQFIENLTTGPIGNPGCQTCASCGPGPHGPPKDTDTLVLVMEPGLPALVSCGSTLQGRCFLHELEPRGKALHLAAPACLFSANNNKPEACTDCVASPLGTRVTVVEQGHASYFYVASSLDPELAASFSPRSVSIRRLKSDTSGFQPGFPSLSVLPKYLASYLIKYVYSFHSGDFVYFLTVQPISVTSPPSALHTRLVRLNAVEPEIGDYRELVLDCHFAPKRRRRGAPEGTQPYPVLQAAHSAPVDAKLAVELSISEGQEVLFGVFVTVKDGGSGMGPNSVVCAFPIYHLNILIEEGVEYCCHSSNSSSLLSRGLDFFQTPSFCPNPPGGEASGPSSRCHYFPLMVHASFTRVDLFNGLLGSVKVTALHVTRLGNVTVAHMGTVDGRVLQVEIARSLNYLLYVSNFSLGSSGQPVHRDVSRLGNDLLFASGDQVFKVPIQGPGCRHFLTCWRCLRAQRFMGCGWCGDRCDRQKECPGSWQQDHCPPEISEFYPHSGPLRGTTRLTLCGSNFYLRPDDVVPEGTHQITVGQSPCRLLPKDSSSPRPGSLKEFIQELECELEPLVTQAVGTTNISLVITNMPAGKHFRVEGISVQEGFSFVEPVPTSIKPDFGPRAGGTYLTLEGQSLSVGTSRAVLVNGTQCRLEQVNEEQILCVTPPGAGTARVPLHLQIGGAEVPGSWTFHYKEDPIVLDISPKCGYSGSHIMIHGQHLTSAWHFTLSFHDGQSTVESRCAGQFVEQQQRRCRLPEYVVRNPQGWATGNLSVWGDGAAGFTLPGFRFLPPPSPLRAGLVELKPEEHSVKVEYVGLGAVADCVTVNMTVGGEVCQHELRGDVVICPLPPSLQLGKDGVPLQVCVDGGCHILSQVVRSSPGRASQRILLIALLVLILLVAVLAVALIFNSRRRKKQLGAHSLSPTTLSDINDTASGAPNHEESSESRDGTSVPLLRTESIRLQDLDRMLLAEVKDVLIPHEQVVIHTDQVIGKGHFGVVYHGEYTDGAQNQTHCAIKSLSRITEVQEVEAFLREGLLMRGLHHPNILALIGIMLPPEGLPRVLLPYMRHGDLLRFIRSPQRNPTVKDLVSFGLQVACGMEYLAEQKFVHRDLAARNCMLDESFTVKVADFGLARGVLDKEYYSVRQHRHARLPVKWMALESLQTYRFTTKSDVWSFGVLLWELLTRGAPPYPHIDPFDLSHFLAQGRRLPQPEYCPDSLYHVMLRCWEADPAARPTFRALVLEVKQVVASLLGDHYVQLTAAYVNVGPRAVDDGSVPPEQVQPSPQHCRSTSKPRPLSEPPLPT
# Legend:
# [1] = molecular target: T1, mouse MST1R with N-terminal Flag tag, …; assay: flow cytometry on HEK293T cells transfected with Flag-tagged mouse MST1R (expression shown by αFlag), FITC-labeled secondary antibody
# Protocol: Cells (5×10⁵ cells/well) were incubated with Fab or IgG antibodies at the indicated concentrations in 50 μl FACS buffer (PBS, 5% FCS) for 60 min at 4° C. in round bottom 96-well culture plates (Corning). Cells were washed twice and then incubated with Fluorescein Isothiocyanate (FITC) conjugated detection antibody for 30 min at 4° C. Cells were washed again, resuspended in 0.3 ml FACS buffer and then analyzed by flow cytometry in a Cytomics FC500 (Beckman Coulter, Inc.). Data were analysed via FlowJo software (Tomy digital biology Co., Ltd.). Polyclonal goat anti-hMSP R IgG (R&D systems) or anti-FLAG M2 antibody (Sigma) was used as a positive control and MOR03207 (anti-lysozyme) antibody was used as a negative control.
# FACS-analysis of MST1R ortholog-expressing cells: Human MST1R (cDNA nucleotide sequence is shown as GenBank Accession No: NM_{—}002447.2), cynomolgus monkey MST1R and mouse MST1R (cDNA nucleotide sequence is shown as GeneBank Accession No: NM_{—}009074.1) expression vector containing N-terminal Flag tag (pFLAG-myc-CMV-19, Sigma) were constructed. cDNA encoding cynomolgus monkey MST1R was amplified by PCR using cynomolgus monkey stomach cDNA as a template with forward and reverse primers having nucleotide sequences of SEQ ID NO: 34 and 35, respectively. By sequencing analysis of PCR product, the cynomolgus MST1R ORF nucleotide sequence was identified as shown in SEQ ID NO: 36. The corresponding amino acid sequence was shown in SEQ ID NO: 37. Then human, cynomolgus monkey and mouse MST1R ORF cDNA, excluding signal peptide regions, were amplified using respective forward and reverse primers having nucleotide sequences of SEQ ID NO: 38 and 39 (human), 40 and 41 (cynomolgus monkey), and 42 and 43 (mouse) with appropriate cloning sites and then cloned into pFLAG-myc-CMV-19. An amplified human MST1R fragment encodes amino acids corresponding to GenBank Accession No: NP_{—}002438.2 (SEQ ID NO: 45). A Mouse MST1R fragment encodes amino acids corresponding to GenBank Accession No: NP_{—}033100.1 (SEQ ID NO: 47) except for those amino acid differences at positions: 688 (Leu to Pro), 713 (Ile to Val), 714 (Ala to Gly) and 719 (Ala to Val). These expression vectors were transfected into HEK293T cells. For FACS-analysis, cells were incubated with 2 μg/ml primary antibodies followed by incubation with FITC-labeled secondary antibody as described above.
# [2] = molecular target: MST1R on cells (293alpha cells transfected with pcDNA-DEST40 MST1R; endogenous on PC3, T-47D and BxPC-3 cells) (human, UniProt Q04912 25-1400); assay: cell-based or functional assay
binding result [1],Reporter assay IC50 (ng/ml); Elk1 luciferase reporter gene assay in the presence of 100 ng/ml MSP [2] [ng/mL],Binder
no binding (tested: 2 µg/ml),9,"MOR07923 (human IgG1) (antibody, V domains shown) VH: QVQLVESGGGLVQPGGSLRLSCAASGFTFNSYSMSWVRQAPGKGLEWVSYISSRSSTTYYADSVKGRFTISRDNSKNTLYLQMNSLRAEDTAVYYCARGYFHGMDYWGQGTLVTVSS VL: DIVLTQSPATLSLSPGERATLSCRASQSVSFDYLGWYQQKPGQAPRLLIYGASNRATGVPARFSGSGSGTDFTLTISSLEPEDFATYYCFQYLIVPFTFGQGTKVEIKR"
no binding (tested: 2 µg/ml),5.9,"MOR07925 (human IgG1) (antibody, V domains shown) VH: QVQLVESGGGLVQPGGSLRLSCAASGFTFNSYSMSWVRQAPGKGLEWVSYISSRSSTTYYADSVKGRFTISRDNSKNTLYLQMNSLRAEDTAVYYCARGYFHGMDYWGQGTLVTVSS VL: DIVLTQSPATLSLSPGERATLSCRASQSVSFDYLGWYQQKPGQAPRLLIYGASNRATGVPARFSGSGSGTDFTLTISSLEPEDFATYYCLQYFNPPHTFGQGTKVEIKR"
no binding (tested: 2 µg/ml),4.4,"MOR07692 (human IgG1) (antibody, V domains shown) VH: QVQLVESGGGLVQPGGSLRLSCAASGFTFNSYSMSWVRQAPGKGLEWVSYISSRSSTTYYADSVKGRFTISRDNSKNTLYLQMNSLRAEDTAVYYCARGYFHGMDYWGQGTLVTVSS VL: DIVLTQSPATLSLSPGERATLSCRASQSVSFDYLGWYQQKPGQAPRLLIYGASNRATGVPARFSGSGSGTDFTLTISSLEPEDFATYYCQQYYNMPYTFGQGTKVEIKR"
no binding (tested: 2 µg/ml),11.4,"MOR07926 (human IgG1) (antibody, V domains shown) VH: QVQLVESGGGLVQPGGSLRLSCAASGFTFNSYSMSWVRQAPGKGLEWVSYISSRSSTTYYADSVKGRFTISRDNSKNTLYLQMNSLRAEDTAVYYCARGYFHGMDYWGQGTLVTVSS VL: DIVLTQSPATLSLSPGERATLSCRASQSVSFDYLGWYQQKPGQAPRLLIYGASNRATGVPARFSGSGSGTDFTLTISSLEPEDFATYYCFQALIMPFTFGQGTKVEIKR"
no binding (tested: 2 µg/ml),15.7,"MOR07924 (human IgG1) (antibody, V domains shown) VH: QVQLVESGGGLVQPGGSLRLSCAASGFTFNSYSMSWVRQAPGKGLEWVSYISSRSSTTYYADSVKGRFTISRDNSKNTLYLQMNSLRAEDTAVYYCARGYFHGMDYWGQGTLVTVSS VL: DIVLTQSPATLSLSPGERATLSCRASQSVSFDYLGWYQQKPGQAPRLLIYGASNRATGVPARFSGSGSGTDFTLTISSLEPEDFATYYCQQYNINPFTFGQGTKVEIKR"
